Here are results for 3 molecules from article PMC9205196 (Nature chemical biology, 2022).

Positions count from the first letter of the chain named.

Usually EC50 stands for the concentration that produces a half-maximal response.

Assay in all cases: AlphaScreen or HTRF
In general terms: Bead proximity is the source of the signal in Alpha formats.

For test [1], the target named is T1, FGFR1, biotinylated (UniProt P11362 22-822, biotin (sulfo-NHS-biotin)).
T1 chain: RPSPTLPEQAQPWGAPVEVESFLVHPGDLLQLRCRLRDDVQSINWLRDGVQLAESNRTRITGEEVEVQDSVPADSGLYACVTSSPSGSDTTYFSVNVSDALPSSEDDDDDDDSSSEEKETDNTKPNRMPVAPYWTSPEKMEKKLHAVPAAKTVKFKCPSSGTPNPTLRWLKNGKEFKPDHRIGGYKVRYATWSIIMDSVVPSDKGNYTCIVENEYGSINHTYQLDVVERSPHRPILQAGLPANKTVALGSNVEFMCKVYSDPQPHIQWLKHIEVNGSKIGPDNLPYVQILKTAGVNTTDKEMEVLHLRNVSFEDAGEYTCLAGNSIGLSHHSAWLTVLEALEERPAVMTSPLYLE

For test [2], the target named is Recombinant human FGF2 (fibroblast growth factor-2), biotinylated (human, biotin (sulfo-NHS-biotin)).
Test [3] addresses Vitronectin (VN), biotinylated (UniProt P04004 20-478, biotin (sulfo-NHS-biotin)).
The target in test [4] is T1, FGFR1, biotinylated.

Vitronectin (VN), biotinylated, sequence (P04004 20-478): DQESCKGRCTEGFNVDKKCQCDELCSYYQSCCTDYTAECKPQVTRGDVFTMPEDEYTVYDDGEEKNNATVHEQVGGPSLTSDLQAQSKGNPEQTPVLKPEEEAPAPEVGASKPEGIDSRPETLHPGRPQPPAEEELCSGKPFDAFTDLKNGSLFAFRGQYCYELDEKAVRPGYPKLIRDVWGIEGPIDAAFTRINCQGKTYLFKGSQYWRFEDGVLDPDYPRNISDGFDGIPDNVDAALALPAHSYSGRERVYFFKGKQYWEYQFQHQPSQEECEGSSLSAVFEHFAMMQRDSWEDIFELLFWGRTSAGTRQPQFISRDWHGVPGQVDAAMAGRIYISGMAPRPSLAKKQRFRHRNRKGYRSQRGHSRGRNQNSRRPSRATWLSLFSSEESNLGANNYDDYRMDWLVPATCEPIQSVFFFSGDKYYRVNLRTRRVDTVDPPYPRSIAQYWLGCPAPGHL

B1: SDC1_(45,47HEP): murine syndecan-1 ectodomain with heparin conjugated at residues 45 and 47 (domain or fragment)
chain: QIVAVNVPPEDQDGSGDDSDNFYGYGTGALPDTLSRQTPSTWKDVWLLTATPTAPEPTSSNTETAFTSVLPAGEKPEEGEPVLHVEAEPGFTARDKEKEVTTRPRETVQLPITQRASTVRVTTAQAAVTSHPHGGMQPGLHETSAPTAPGQPDHQPPRVEGGGTSVIKEVVEDGTANQLPAGEGSGEQDFTFETSGENTAVAAVEPGLRNQPPVDEGATGASQSLLDRKEVLG
modifications: p-propargyltyrosine (pPY) at 45 and 47, each joined by CuAAC to azido-heparin (azHEP)
For the molecule B1, the EC50 with FGFR1, biotinylated [1] stood at 0.4 nM; in test [2] it was 0.3 nM; in test [3], 0.8 nM. For the same molecule, the “EC50 of ternary complex formation with soluble non-tagged FGF2” value (“EC50 … with soluble non-tagged FGF2” below) in the test with FGFR1, biotinylated [4] came to 0.004 nM.

B2: SDC1_(37,45,47HEP): murine syndecan-1 ectodomain with heparin conjugated at residues 37, 45 and 47 (domain or fragment)
chain: B1 chain with S15Y
modifications: p-propargyltyrosine (pPY) at 37, 45 and 47, each joined by CuAAC to azido-heparin (azHEP)
Turning to B2, the EC50 in the test with FGFR1, biotinylated [1] stood at 0.3 nM; in test [2], 0.3 nM; in test [3], 0.5 nM. Also, in the test with FGFR1, biotinylated [4], the “EC50 … with soluble non-tagged FGF2” value worked out at 0.008 nM.

B3: mSDC1: commercial glycosylated, mammalian expressed recombinant mouse SDC1 ectodomain (domain or fragment, UniProt P18828 23-255, looked up)
chain: B1 chain with Y23S, Y25S
modifications: native GAG chains from the mammalian host (CS predominant over HS by the paper's disaccharide analysis)
For the molecule B3, the EC50 in the test with FGFR1, biotinylated [1] is > 20 nM; in test [3], > 100 nM. Also, the “EC50 … with soluble non-tagged FGF2” value with FGFR1, biotinylated [4] was found to be 4 nM.
